Measurements taken from US10428140B2, “Anti-EphA4 antibody” (EISAI R&D MANAGEMENT CO., LTD., priority 2015, dated 2019).
Numbering of substitutions follows the chain as printed.

T1: human EphA3 (Homo sapiens, UniProt P29320)
T1 construct: a protein of the extracellular region of each human Eph receptor fused with the SEAP protein and the His tag; made in house; host or cells: Expi293F cells (culture supernatant)
T1 sequence (P29320 21-541 limits assumed): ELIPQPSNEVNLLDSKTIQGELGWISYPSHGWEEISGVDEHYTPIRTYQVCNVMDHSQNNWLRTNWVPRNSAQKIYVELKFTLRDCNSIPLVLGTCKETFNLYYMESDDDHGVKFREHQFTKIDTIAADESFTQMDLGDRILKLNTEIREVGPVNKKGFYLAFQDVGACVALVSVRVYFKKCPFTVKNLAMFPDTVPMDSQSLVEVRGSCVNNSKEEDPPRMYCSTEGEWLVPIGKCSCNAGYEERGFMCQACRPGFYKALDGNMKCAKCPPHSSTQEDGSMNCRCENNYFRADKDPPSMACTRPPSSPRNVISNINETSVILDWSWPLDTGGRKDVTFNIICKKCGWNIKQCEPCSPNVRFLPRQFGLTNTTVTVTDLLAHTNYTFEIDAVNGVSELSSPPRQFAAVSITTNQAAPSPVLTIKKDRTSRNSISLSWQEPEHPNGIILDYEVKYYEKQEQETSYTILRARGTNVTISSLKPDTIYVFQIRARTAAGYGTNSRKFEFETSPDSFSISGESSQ

T2: human EphA7 (Homo sapiens, UniProt Q15375)
T2 construct: a protein of the extracellular region of each human Eph receptor fused with the SEAP protein and the His tag; made in house; host or cells: Expi293F cells (culture supernatant)
T2 sequence (Q15375 28-555 limits assumed): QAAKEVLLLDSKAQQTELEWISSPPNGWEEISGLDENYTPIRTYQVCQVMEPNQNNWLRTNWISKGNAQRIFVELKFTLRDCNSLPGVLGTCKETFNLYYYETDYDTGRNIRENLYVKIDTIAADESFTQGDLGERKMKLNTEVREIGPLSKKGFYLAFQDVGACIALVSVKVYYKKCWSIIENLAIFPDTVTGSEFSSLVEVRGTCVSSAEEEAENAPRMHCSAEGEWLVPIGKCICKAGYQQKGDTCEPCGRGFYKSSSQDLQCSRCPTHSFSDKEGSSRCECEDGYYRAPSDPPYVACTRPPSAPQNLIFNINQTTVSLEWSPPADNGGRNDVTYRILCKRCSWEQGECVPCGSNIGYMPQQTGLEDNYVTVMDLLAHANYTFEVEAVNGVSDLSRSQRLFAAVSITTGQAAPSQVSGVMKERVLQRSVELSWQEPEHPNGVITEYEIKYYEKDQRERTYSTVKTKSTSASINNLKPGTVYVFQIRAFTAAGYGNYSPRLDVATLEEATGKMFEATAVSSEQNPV

T3: human EphB3 (Homo sapiens, UniProt P54753)
T3 construct: a protein of the extracellular region of each human Eph receptor fused with the SEAP protein and the His tag; made in house; host or cells: Expi293F cells
T3 sequence (P54753 34-559 limits assumed): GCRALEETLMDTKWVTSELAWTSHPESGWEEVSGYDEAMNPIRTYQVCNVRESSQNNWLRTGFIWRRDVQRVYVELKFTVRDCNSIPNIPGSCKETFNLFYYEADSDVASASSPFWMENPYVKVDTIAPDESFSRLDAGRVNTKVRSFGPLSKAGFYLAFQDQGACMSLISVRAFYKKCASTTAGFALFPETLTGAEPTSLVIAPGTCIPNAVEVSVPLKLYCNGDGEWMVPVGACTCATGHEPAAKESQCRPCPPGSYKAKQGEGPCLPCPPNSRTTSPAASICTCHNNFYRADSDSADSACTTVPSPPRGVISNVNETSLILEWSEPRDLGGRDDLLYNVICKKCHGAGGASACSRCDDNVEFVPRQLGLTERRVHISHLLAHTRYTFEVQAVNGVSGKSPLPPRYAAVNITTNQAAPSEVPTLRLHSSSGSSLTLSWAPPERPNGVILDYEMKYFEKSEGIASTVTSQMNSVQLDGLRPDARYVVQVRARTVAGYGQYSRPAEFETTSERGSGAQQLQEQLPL

B1: 92 (antibody, V domains shown)
VL: DIQMTQSPSSLSASVGDRVTITCRASENIYRNLAWYQQKPGKAPQLLLYAATNLADGVPSRFSGSGSGTDYTLTISSLQPEDFATYYCQHFWGTPWTFGQGTKVEIK
VH: QIQLVQSGSELKKPGASVKVSCKASGYTFTDYSMHWVRQAPGQGLKWMGWINTETGEPTYADDFKGRFVFSLDTSVSTAYLQISSLKAEDTAVYYCARIPLYYYGSRYWYFDVWGQGTTVTVSS
modifications: constant regions without entry; synthetic humanized antibody light chain variable region sequence; synthetic humanized antibody heavy chain variable region sequence
B2: 93 (antibody, V domains shown)
VL: EIVMTQSPATLSVSPGERATLSCRASENIYRNLAWYQQKPGQSPRLLIYAATNLADGIPARFSGSGSGTEYTLTISSLQSEDFAVYYCQHFWGTPWTFGQGTKVEIK
VH: B1 VH with I2V, K46E, D62Q, D63G, K65T
modifications: constant regions without entry; synthetic humanized antibody light chain variable region sequence; synthetic humanized antibody heavy chain variable region sequence
B3: 96 (antibody, V domains shown)
VL: B2 VL
VH: B1 VH with I2V
modifications: constant regions without entry; synthetic humanized antibody light chain variable region sequence; synthetic humanized antibody heavy chain variable region sequence
B4: 95 (antibody, V domains shown)
VL: B2 VL
VH: B1 VH with I2V, K46E
modifications: constant regions without entry; synthetic humanized antibody light chain variable region sequence; synthetic humanized antibody heavy chain variable region sequence
B5: 73 (antibody, V domains shown)
VH: B1 VH
VL: B2 VL
modifications: synthetic humanized antibody heavy chain variable region sequence; synthetic humanized antibody light chain variable region sequence
B6: 71 (antibody, V domains shown)
VH: B1 VH with D62Q, D63G, K65T
VL: B2 VL
modifications: synthetic humanized antibody heavy chain variable region sequence; synthetic humanized antibody light chain variable region sequence
B7: 94 (antibody, V domains shown)
VL: B2 VL
VH: B1 VH with I2V, D62Q, D63G, K65T
modifications: constant regions without entry; synthetic humanized antibody light chain variable region sequence; synthetic humanized antibody heavy chain variable region sequence

The molecules below were run against SEAP-His (Homo sapiens, UniProt P05187) (assay: Selectivity ELISA of humanized antibodies for human Eph receptor). Conditions: coated protein 1 nM.
Type: binding
Excerpt: (§1) According to the method described in Example 7, a DNA sequence encoding the signal sequence and the extracellular region of each human Eph receptor (EphA1, EphA2, EphA3, EphA4, EphA5, EphA6, EphA7, EphA8, EphA10, EphB1, EphB2, EphB3, EphB4, and EphB6) was amplified by RT-PCR using tissue-derived total RNA and cloned into a pENTR1A vector (Invitrogen/Life Technologies) having a DNA sequence encoding SEAP protein and histidine tag. Next, the DNA sequence encoding the signal sequence and the extracellular region of each human Eph receptor, SEAP protein, and histidine tag was transferred to a pcDNA3.1_rfcB vector through LR reaction using Gateway System (Invitrogen/Life Technologies) to construct a vector for the expression of a protein of the extracellular region of each human Eph receptor fused with the SEAP protein and the His tag (referred to as “Eph receptor extracellular region-SEAP-His protein”) (this vector is referred to as “Eph receptor extracellular region-SEAP-His protein expression vector”).
(§2) Next, each human Eph receptor extracellular region-SEAP-His protein expression vector was transferred to Expi293F cells (Gibco/Thermo Fisher Scientific) using Expi293 expression system (Gibco/Thermo Fisher Scientific). After incubation (5% CO2, 37° C.) for 5 days, the culture supernatant was recovered and centrifuged at 1500 rpm at room temperature for 5 minutes. The centrifugation supernatant was filtered through a 0.45-μm filter (Merck Millipore).
(§3) Each anti-EphA4 monoclonal humanized antibody obtained in Example 16 was evaluated for its binding activity against each human Eph receptor according to the following steps.
(§4) Each well of a 96-well plate (Nunc) was coated with a rabbit anti-6-His antibody (Bethyl Laboratories). Each well was […] After washing with 0.05% Tween 20/PBS (Nacalai Tesque) three times, the SEAP-His protein of human EphA1, EphA2, EphA3, EphA4, EphA5, EphA6, EphA7, EphA8, EphA10, EphB1, EphB2, EphB3, EphB4, or EphB6 was added (final concentration: 1 nM) to each well and incubated at room temperature for 1 hour. After washing three times, the humanized antibody was added to each well and incubated at room temperature for 1 hour. After washing three times, a horseradish peroxidase-labeled donkey […] IgG antibody (Jackson ImmunoResearch Laboratories) was added thereto and incubated at room temperature for 1 hour. After washing three times, TMB Microwell Peroxidase Substrate System (Kirkegaard & Perry Laboratories (KPL)) was added to each well. After confirmation of moderate color development, an equal amount of a reaction stopping solution (1N H2SO4, Wako Pure Chemical Industries) was added to each well. The absorbance at 450 nm was read using a microplate reader (Thermo Fisher Scientific).

SEAP-His, sequence (P05187 23-511 limits assumed): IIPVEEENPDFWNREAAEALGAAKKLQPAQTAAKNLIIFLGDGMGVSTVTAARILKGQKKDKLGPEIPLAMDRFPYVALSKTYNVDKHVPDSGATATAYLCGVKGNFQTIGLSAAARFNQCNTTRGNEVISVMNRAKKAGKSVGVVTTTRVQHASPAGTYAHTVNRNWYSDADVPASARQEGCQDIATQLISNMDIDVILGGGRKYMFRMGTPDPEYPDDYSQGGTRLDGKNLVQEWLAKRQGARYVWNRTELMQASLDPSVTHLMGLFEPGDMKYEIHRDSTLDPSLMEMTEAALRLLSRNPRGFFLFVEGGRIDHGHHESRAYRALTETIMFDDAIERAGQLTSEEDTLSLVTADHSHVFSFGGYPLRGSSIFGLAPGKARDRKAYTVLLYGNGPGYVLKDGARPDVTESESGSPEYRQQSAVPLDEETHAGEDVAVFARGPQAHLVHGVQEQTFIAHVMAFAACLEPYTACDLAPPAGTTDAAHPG

SEAP-His: absorbance at 450 nm, percentage with respect to hEphA4-SEAP-His as 100%	Molecule
6.5%	B1
5.0%	B2
5.5%	B3
4.4%	B4
5.8%	B5
5.6%	B6
6.7%	B7

What follows are molecules tested against T1, human EphA3 in the same assay as above. Conditions: coated protein 1 nM.
Type: binding
Excerpt: as §1, §2, §3, §4

hEphA3-SEAP-: absorbance at 450 nm, percentage with respect to hEphA4-SEAP-His as 100%	Molecule
6.5%	B1
5.1%	B2
5.5%	B3
4.8%	B4
5.8%	B5
5.6%	B6
6.8%	B7

These molecules were tested against T4, human EphA5 (Homo sapiens, UniProt P54756) in the same assay as above. Conditions: coated protein 1 nM.
T4 construct: a protein of the extracellular region of each human Eph receptor fused with the SEAP protein and the His tag; made in house; host or cells: Expi293F cells (culture supernatant)
Type: binding
Excerpt: as §1, §2, §3, §4

T4 sequence (P54756 25-573 limits assumed): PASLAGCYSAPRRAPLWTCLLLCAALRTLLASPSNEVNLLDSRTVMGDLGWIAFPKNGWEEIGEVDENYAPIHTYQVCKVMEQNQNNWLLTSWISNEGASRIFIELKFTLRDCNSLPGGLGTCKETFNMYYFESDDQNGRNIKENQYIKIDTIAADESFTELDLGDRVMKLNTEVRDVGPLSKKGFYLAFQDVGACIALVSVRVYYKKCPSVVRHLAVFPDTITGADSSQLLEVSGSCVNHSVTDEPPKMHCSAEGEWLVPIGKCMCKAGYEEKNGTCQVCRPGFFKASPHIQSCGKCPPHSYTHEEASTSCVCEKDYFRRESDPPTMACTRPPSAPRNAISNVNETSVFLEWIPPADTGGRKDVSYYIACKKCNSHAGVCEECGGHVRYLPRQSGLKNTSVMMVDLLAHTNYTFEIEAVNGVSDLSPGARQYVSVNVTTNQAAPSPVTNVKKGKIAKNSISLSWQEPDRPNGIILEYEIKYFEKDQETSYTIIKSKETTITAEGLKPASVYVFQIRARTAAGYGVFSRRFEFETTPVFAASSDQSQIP

hEphA5-SEAP-: absorbance at 450 nm, percentage with respect to hEphA4-SEAP-His as 100%	Molecule
6.8%	B1
4.9%	B2
6.0%	B3
4.6%	B4
6.0%	B5
5.6%	B6
6.5%	B7

Each molecule was assayed against T2, human EphA7 in the same assay as above. Conditions: coated protein 1 nM.
Type: binding
Excerpt: as §1, §2, §3, §4

hEphA7-SEAP-: absorbance at 450 nm, percentage with respect to hEphA4-SEAP-His as 100%	Molecule
6.4%	B1
4.9%	B2
5.3%	B3
4.4%	B4
5.6%	B5
5.2%	B6
6.1%	B7

Each molecule was assayed against T3, human EphB3 in the same assay as above. Conditions: coated protein 1 nM.
Type: binding
Excerpt: as §1, §2, §3, §4

hEphB3-SEAP-: absorbance at 450 nm, percentage with respect to hEphA4-SEAP-His as 100%	Molecule
6.9%	B1
5.1%	B2
5.6%	B3
4.6%	B4
5.8%	B5
5.5%	B6
6.7%	B7
